In the DeepSol protein solubility set:

assay: soluble on expression in E. coli; label from the status in PepcDB or PDB records

Soluble on expression in E. coli, not soluble:
MGSDKIHHHHHHMNSNPFVSVVMSVYNGGEFLKDAINSILSQSYKNFEFIIINDGSSDNFSEILELYDDERIKVLNNQENKGLVYSLNRGLLESIGKYIVRMDADDISLPNRIEKQVEFMEREPEVGVCGSYIEIFGDTIKRKVQRFPSNVNVNEAFLLFSTCLAHPSVIIRKSIVDKYKLRYDDRYLHAEDYAIWCQAVKYTKISNIREVLLKYRILESSVTRQANKNFQSRFDVHKSIYKDIFRNKGIDYTEKELYLHFIISDNNRFRNQALTIRPSEINAHLTKILSHYRGASNYKYIAFLVNKRGLSLSRWYSESRGFYFIMYLFKFLYYKIQIKK, MGSDKIHHHHHHMNTIHSCVLQIHLTIETKMADTKAIQQLDLNLLKIFEALYSEQNMTLASKSLFITPSAVSHAIKRLRLVLNDPLFVRQGLQMQPTAACQRMAPQLISALNRIRQVLQQCGEFDPLTTEQTFKIAIHEALESQIMPTLIKQVVKLIPHAKIASMSLSRENIARQLANGEVDLAIDVARAVNAPLAHKTLLSDPFCVLIDRRQHAMHLEPSTKLTPTDYANAEHVAVSSRPIGRVMEDILLQQQGVNRHIKYRCQSYQTAAKIVIGSPLMLTLPRSIAEQFIHPDLHVCTMPFELPDIDTHLYWHMNTETDPAFVWLRAQIEMAIIAE, MGSDKIHHHHHHMNTLLKQLKPYPFARLHEAMQGISAPEGMEAVPLHIGEPKHPTPKVITDALTASLHELEKYPLTAGLPELRQACANWLKRRYDGLTVDADNEILPVLGSREALFSFVQTVLNPVSDGIKPAIVSPNPFYQIYEGATLLGGGEIHFANCPAPSFNPDWRSISEEVWKRTKLVFVCSPNNPSGSVLDLDGWKEVFDLQDKYGFIIASDECYSEIYFDGNKPLGCLQAAAQLGRSRQKLLMFTSLSKRSNVPGLRSGFVAGDAELLKNFLLYRTYHGSAMSIPVQRASIAAWDDEQHVIDNRRLYQEKFERVIPILQQVFDVKLPDASFYIWLKVPDGDDLAFARNLWQKAAIQVLPGRFLARDTEQGNPGEGYVRIALVADVATCVKAAEDIVSLYR, MGSDKIHHHHHHMNTNTSITIQKPKTDELLLWNLLFADTGRQVLLVAYDIKLFPLLSQKPCTLAEICNELKIFQRPAEAILAVLASIELLEIENNYYSLTLLAKDYLVKSSPTYFGALLEMMIFDERKHISSFDSLKKSLFTNNYPGKKVMESLVKNHDFMRTITFGNNVKLIRGFISSMHGPSMAAALIWPELIDLSEYKLFIDIGGGSAAHSIGATLKWPNLQAVVLELPTVCEIAQEFITHYGLQNRIATQEFDMWSDTFPVGDLHFYSAVYHHWQQEKCQVITKKSFNSLLPGGRIILHEMLFNEQKTGPFPVAAKNLNISLKLGGQQYSGQELSMMLEQAGFIDIEIKPASSYWSIITGRKP, MGSDKIHHHHHHMNTVTIIGCGWFGLPLATQLVKQGIKVKASKRHPEDLVQLQQAGVDAYQLNLANVNSQAKNSSLFDADAIVINLPPGLRRGETDYLGYLTQLITLMGEHQYQKIIFISTTGVYPSLDQTVTEQDAAAFNDTSRTLLQAEAMFSAMKNSCIVRFSGLVGPKRHPGRFFAGKTDVSGANVAVNLVHLDDCIAAVSLILSRNDTLPIYNLAANAHPTRGEFYVAAAEHLGLTAPEFNQQQQPNKTIDGQLICHHLGFTYAFNNPFKMLDAC, MGSDKIHHHHHHMNTYFDNATSSYPKPDAMRQALAYFYDVPVGSYGRSRDRETLRVTSEVEELRDALADLIGVSESAHICFADNATTGINTILRGSLQAGCSVLVSPMEHNAVMRPLQCLADTIGLKIALMPSMPDGRVDTDRLVSAIPTDTALAVVNLESNVNGLVQPIEEIARLLTQERGIPILADATQYLGTSRLKADELGLAYVAFTGHKGLLGPSGTGGFYIRDPRSVHPLTTGGNGLHSADWTVGVEMPERFMAGTVNVLGLTALLASVRQLPPFRISRDAWKQCMQQMQRFPGLRVYGAADPIEQGYLCSLTHDRLTPARIGDALYEAFDIVTRTGIHCAPLAHRSIGTFATGTVRLSLSPYHEEADLEYLLNALSHVLRS, MGSDKIHHHHHHMNVTTSTLADGREIIYFDDHELREGERVLHDSRDLPHTQPLSEIRHDPLTNTWVAYAAHRMNRTFMPPANENPLAPTTPGNLPTEIPSPTYDVVVFENRFPSFSMNIAVGEDWESYVDGIDLYPRRPALARCEVVCFTPDVDKSFKDLPVSRIRTVINAWAHRTEALSALSGVQQVFPFENRGEEIGVTLQHPHGQIYSYPFLSPRLQAIVQSAQYYAETHDGHDLFDAIIREESAVQTRVIERTEHFIVFVPAAAKWPVEAMVMPLRAVADFTELTDVERDDLAALLKRLYTAVDSFFEGVTKTPYIAGWTQAPVDPALRPFGRLHLQLFSLMRSPNRMKFLAGSESSQGVWINDTTPERIAQRFKEVWPHATLD, MGSDKIHHHHHHMNVYEKGNGVILEGVTDFDPVHIFECGQCFRWHKQEDGSYTGVAKGRILNVKKENDKIYLNNTNLKEFNSIWYNYFDLGTDYTEIKNKLKNMDEYLNKATEFGWGIRILRQDGWEMLISFIISSNNRIPMIQRAIENLSRKFGKYIGEYEGNEYYAFPTPEELNKASQEEIRACQTGFRDKYIKSTTQAVIENNDEVSEYTNLSTEDCRKELLKFNGVGPKVCDCIALFGMQKYDSFPVDVWVKRVMQEFYIDEDMSLPKMRTYGIDKFKEMSGFAQQYLFYYARELGIGK, MGSDKIHHHHHHMNYEGKTKIVKVTGDYALLEFKDDITAGDGLKHDVLTGKGSICAETTAILMKYLSEKGIKTHLVEYIPPRTLKVIPLKMFPLEVVVRLKKAGSFVRRYGGAEGEDLPVPLVEFFIKDDERHDPMVCVDHLEILGIATKKQAEKMKEAAVKITLALKEFFERANFELWDIKYEFGLDKDGNVVLGDEISPDTFRLRKKGEIFDKDVYRRDLGDPLKKYREVLELCRSLNSQ, MGSDKIHHHHHHMNYKYYTIVILGLLAFSACEKDDIDIPATDNEVNQWIEQTMRENYLWYSELPDKSSLDFSLDPESFFKGLLSDKDGKELSDGHHYFSQLEKATVTKSIYDANNSYGFDFATSNLKDGGSTYKIAIVLYVLKDSPAEEAGLKRGDWILGVNGSLGSIQDYDVLRSGGSVSLQLGKETGNTKGFVSTRRVTLNASRTVEDSPFLKDSVYTYGNKRIGYLMYNHFASGPDEYDYSDTSYNLYLQQLFEKFKSRNVNEFVLDLRYNGGGLVNCAQLLASLLVRENVLGEPLCIMEYNDKNSNKNETLPLLKTTEVMAGNLNLQRLFVLTGSTTASASELIINSLRSYLDVRVIGKQTFGKTVGMTIYNESKKYGWILSPVTFHIYNKDREADYEDGFHPDVAIDEFKSDLAEFGDLKDPLLGQAIYEITGQSPLLRSATPRGNREIQYNPPLSYKDNLLLIPKD, MGSDKIHHHHHHMNYLEAEDLTTGYGRQVISEALNCSFEAGTITSIIGPNGCGKSTLLKTLARILPAEKGKVFIKNQELQHFSSKEVAQELAILSQTPENTIDLSVFDLVSFGRYPYQSGWKSVTTEDQEYIQWALELTGLTELARESVAILSGGQRQRVWIAMALVQDTDILILDEPTTYLDPAHQLEILNVLKRINQEHQKTIVMTIHDINLASRFSDRVIAMKEGKIINEGTPQEVITVTGLADVFAIQAEISYHSQTQRPLVLSYELMEMELDG, MGSDKIHHHHHHMPDLTTAPDAEILMAQPRGFCAGVDRAIEIVERALTRFGAPIYVRHEIVHNAYVVADLRRKGAVFVRELDEVPAGATVIFSAHGVSKDVRAEAASRGLNVFDATCPLVTKVHVEVGKMRAEGCEIVMIGHRGHPEVEGTMGQAEGGMLLVESVADVAGLVVADPARLAYVTQTTLSVDETLEIVAALKARFPLIREPKKQDICYATQNRQDAVKFMAPQVDVVIVVGSPNSSNSNRLRELAARLGVPAYMVDAPDQVHPEWVAGKRRIGLTAGASAPEELAQSIVARLRELGAGHVRALAGIEENMAFPLPRGLQAAATVGVTA, MGSDKIHHHHHHMPEQQKSVTGTSLFERYTLSQAYDEMFTAEGDIRPAYSELARLLCSISPAELQQRQRYADLTFLNQGITFTVYGNDAGVERVFPYDLLPRIIAADEWQHIERGLHQRIVALNLFLHDVYHNENILRDGIIPRHLVYSCRHYRREMRGLTVPRGVYTAIVGTDLVRLPDGQFVVLEDNLRVPSGVSYMLTNRAVMKRALPRLFGAYGVRPIDHYGQALLATLRALAPAHRPEPTIVLLTPGVFNSAYFEHTFLARQMGIELVEGRDLLVHNNIVYMRTTKGLQRVDVIYRRIDDDFLDPMIFRPDSVLGVPGLFNAYRAGTVVLANAIGTGVADDKAIYAYVPDIIRYYLGEEPILPNVTTYLCDRPDECAYVLEHLGDLVVKAVGESGGYDMLIGPHSTREEQAQFAERIRAQPRNYIAQPTLQLSQAPCFIDGVIEPRHVDLRPFVLFDGERTTIVPGGLTRVALRRGSLVVNSSQGGGSKDTWVLY, MGSDKIHHHHHHMPGASPWRALVGGVKGQPQGTGMDRIGPAERPILSEGAKRVTADLLQTINTIYDCVGDELDHHRCLAAIGEAVDGTSLSVGEVFPFFGRIRLIANYCVPEDAARIMVDSFSTIESNSFMKNLPRFPEGVPFMRRTFVSDEEHYQSDIYKLASEPWGLHSEGATIFSKSIVSAKFCGFFRLPGKAELDIHDLSKLAILNGHYMKAMKFQDRISGLETALLRANNVLDLLDFGLLLFGDQKSPLYVNQAAHRILEKSDVMSLGRDGLIFSSSKSQNHYEKIFSSVVGSRSSPTKGTGGLVQVSPASFRRPYNVVVQPISSHQTGVADATIGVLIFDPNAKRTTAIELFSTSYGLTKKETQLALHLAEGLSVDEYAKSHNVSINTVRTHVRSIYEKTNTTRQPELVSLILRLTAGLNWT, MGSDKIHHHHHHMPIITSYITQDDGTTTVVISGVELGNKETLLLDNGFDVEVDVSVIDPFQITGKQRRKIFALVKDIEEHTGQPMDYMRHMFIEFVRTYYGYDERISLSNCTRTQASQIIEATLDWTFYNDIPLSYKTSNLLKQDKSFLYWSTVNRNCVICGKPHADLAHYEAVGRGMNRNKMNHYDKHVLALCREHHNEQHAIGVKSFDDKYHLHDSWIKVDERLNKMLKGEKKE, MGSDKIHHHHHHMPIKVNMFSSASKVKGQGVGSAYEELIRLLKTHFPKQIDVSINKFTKADISHYHTIDPNFYLSTFSKKRGIKVGYVHFLPETIEGSLNIPQPFRSIFYKYIISFYKRMDHIVVVNPTFIDKLVAYGISRDIITYIPNFVRKNEFYRFTEANRDAVRERLEVNNRFTVLGIGQVQERKGVKDFIKLAENNPDKYFIWAGGFSFGRLTDGYADLKQVVDNPPRNLKFTGIVDRNALVEYYNAADLFLLPSYNELFPMSVLEAFSCGVPVMLRDLELYHSIIKGYYIPTQDYEDMNTQLKLVSEDKERLNKFKQLSDEASEEYSEDHLADIWLDFYSSLTK, MGSDKIHHHHHHMPKLGFVQVEVSTRCQLSCLMCPKSCFSDEWIAKDMNMETFRLIPFKKFHYAHLQGWGEPLLNPNIGEMVDIAAKSCKVGLTTNGLLIDHHIDSILKLDLLAVSVASGDARQHERVRGCSLEKLAGNIKLVSESRGKRPKIVIATMMLKSTIESLPKLIDFAAECGADEVIANNLDYIPSKELVGEEVFGLTADKDVEKAVEQAGKRAEELGIGFIAKPRLMEEALVCAENPVENCVVAVDGRIAPCAYLNLPTASETIPRWFRGRTVEVPKVYFSSFKEWLKSDFRDTFKRRLQVLHQSLPTELPPLPQPCRTCYKAYSV, MGSDKIHHHHHHMPLSIITNTFAGNPLDRDSERRGDEAFLAEKLADPESLAVALWNGKPLVEDILGEDGKPTGVQIAYLRADMAQDLAGGSEKLLYMGLWKDIAVFAVDIEGAADPAEGPLQGLGRFEELRGAAASMPPADAGILATAKSMFEWRRRHRWCSACGQKTEVSDGGWKRVCPSCEAEHFPRTDPVAIMLAIHDGKCLLGRQAMWPQGMFSALAGFIEPGETIEEACARELQEEAGLKATAVRYHSSQPWPWPSSLMMGLIAEVDSDEAAPDQTELEEVRWFTREEALQLIRGELDGLFAPPPLAIAHQLIKAWAEEA
